Laboratory results as given in patent US20220112288A1 (published 2022).

B1: 75110_04F22A (antibody, V domains shown)
VH: EVQLVESGGGLVQPGGSLRLSCAASGFTFSSYDIHWVRQATGKGLEWVSTIGTAGDTYYPGSVKGRFTISRENAKNSLYLQMNSLRAGDTAVYYCARGGYYYYGMDVWGQGTTVTVSS
VL: EIVLTQSPGTLSLSPGERATLSCRASQSVYSSYLAWYQQKPGQAPRLLIYGASSRATGIPDRFSGSGSGTDFTLTISRLEPEDFAVYYCQQFGTSPFTFGPGTKVDIK
notes: Tested as non-clonal AlivaMab Mouse Kappa hybridoma supernatant: human variable domains and human kappa, mouse Fc
B2: 75110_01G11A (antibody, IgG1, V domains shown)
VH: EVQLVESGGGLVQPGGSLRLSCAASGFTFSSYDMHWVRQATGKGLEWVSTIGTAGDTYYPGSVKGRFTISRENARNSLFLQMNSLRAGDTAVYYCARGGDYYYGMDVWGQGTTVTVSS
VL: EIVLTQSPGTLSLFPGERATLSCRASQNTYSSYLAWYQQKPGQAPRLLIYGASNRATGIPDRFSGSGSGTDFTLTISRLEPEDFAVYYCQQHGTSPFTFGPGTKVDIK
notes: as for B1
B3: 75110_06D16A (antibody, V domains shown)
VH: QVQLQQWGAGLLKPSETLSLTCAVYGGSFSGYYWSWIRQPPGKGLEWIGEINHSGSTNYNPSLKSRVTISVVTSKNQFSLKLSSVTAADTAVYYCARVLNWFDPWGQGTLVTVSS
VL: DIQMTQSPSSVSASVGDRVTITCRASQDIADWLAWYQQKPGKAPKLLIYAASSFQSGVPSRFSGSGSGTDFTLTISSLQPEDFATYFCQQANSFPYTFGQGTKLEIK
notes: Tested as non-clonal AlivaMab Mouse Kappa hybridoma supernatant: human variable domains and human kappa, mouse Fc (detected with anti-mouse Fc)
B4: 75110_12C19A (antibody, IgG1, V domains shown)
VH: EVQLVESGGGLVQPGGSLRLSCAASGFTFSSYWMSWVRQAPGKGLEWVANIKEDGSDKYYVDSVKGRFTISRDNAKNSLYLQMNSLRAEDTAVHYCVREGGQWLALDYWGQGTLVTVSS
VL: DIQMTQSPSSVSGSVGDRVTITCRASQGISSWLAWYQQKPGKAPKLLIYGASSLQSGVPSRFSGSGSGTDFTLTISSLQPEDFVTYYCQQANSFPWTFGQGTKVEIK
notes: as for B1
B5: 75110_13P21A (antibody, IgG1, V domains shown)
VH: QVQLQQWGAGLLKPSETLSLTCAVSGGSFSGYYWSWIRQPPGKGLEWIGEINHSGSTNCNPSLKSRVTISVDTSNNQFSLKLSSVTAADTAVYYCARVLNYFDYWGQGTLVTVSS
VL: DIQMTQSPSSVSASVGDRVTITCRASPDIANWLAWYQQKPGKAPELLIYAASSLQSGVPSRFSGSGSGTDFTLTISSLQPEDFATYFCQQANSFPLTFGGGTKVESK
notes: as for B1
B6: 75110_13P22A (antibody, IgG1, V domains shown)
VH: QVQLQQWGAGLLKPSETLSLTCAAYGGSFSGYYWSWIRQSPGKGLEWIGEINQSGNTNYNPSLKSRVTISADTSKNQFSLKLSSVTAADTAVYYCARVLNWFDYWGQGILVTVSS
VL: DIQMTQSPSSVSASVGDRVTITCRASQGISDWLAWYQQKSGKAPDLLIFAASSLQSGVPSRFSGSGSGTDFTLTISSLQPEDFATYYCQQANSFPYTFGQGTKLEIK
notes: as for B1
B7: 75110_12K21A (antibody, V domains shown)
VH: QVQLQQWGAGLLKPSETLSLTCAVSGGSFSGYYWSWIRQPPGKGLEWIGEINHSGSTNCNPSLKSRVTISVDTSNNQFSLKLSSVTAADTAVYYCARVLNYFDYWGQGTLVTVSS
VL: DIQMTQSPSSVSASVGDRVTITCRASPDIANWLAWYQQKPGKAPELLIYAASSLQSGVPSRFSGSGSGTDFTLTISSLQPEDFATYFCQQANSFPLTFGGGTKVESK
notes: as for B1
B8: 75110_07B16A (antibody, IgG1, V domains shown)
VH: QVQLQQWGAGLLKPSETLSLTCAVYGGSFSGYYWSWIRQSPGKGLEWIGEINQSGSTNYNPSLKSRVTISVDTSKDQFSLKLSSVTAADTAVYYCARVINWFDSWGQGSLVTVSS
VL: DIQMTQSPSSVSASVGDRVTITCRASQGISSWLAWYQQKPGKAPKLLIYDASSFQSGVPSRFSGSGSGTDFTLTISSLQTDDFATYYCQQANSFPYTFGQGTKLEIK
notes: as for B1
B9: 75110_13C13A (antibody, IgG1, V domains shown)
VH: QVQLQQWGAGLLKPSETLSLTCAVSGGSFSGYYWSWIRQPPGKGLEWIGEINHSGSTNCNPSLKSRVTISVDTSKNQFSLKLSSVTAADTAMYYCARVLNFFDYWGQGTLVTVSS
VL: DIQMTQTPSSVSASVGDRVTITCRASPGISNWLAWYQQKPGKAPELLIYAASSLQSGVPSRFSGSGSGTDFTLTISSLQPEDFATYFCQQANSFPLTFGGGTKVESK
notes: as for B1

Experiments:
huCD4-HIS = target: T1, huCD4-HIS (human, UniProt P01730 26-390, limits assumed); experiment: ELISA binning, competitor Ibalizumab; 100 ng/mL huCD4-HIS, anti-HIS HRP detection; background 45, max binding 3000000
T1 construct: the ELISA binning is not described in the text of this stretch

[1] = target: T2, human CD4 on cells (SKW3 cells; human PBMCs) (human, UniProt P01730 26-458); experiment: FACS confirmation, supernatant on SKW3 WT cells, anti-mouse Fc 647; background gMFI 3300
T2 construct: whole, on cells; SKW3 CD4 knockout cells served as the negative cell line; also called hCD4

[2] = target: T2, human CD4 on cells (SKW3 cells; human …); experiment: FACS confirmation, supernatant on SKW3 WT cells, anti-human kappa FITC; background gMFI 2500
[3] = target: T2, human CD4 on cells (SKW3 cells; human …); experiment: FACS binning on SKW3 cells pre-incubated with supernatant; competitor RPA-T4-PE-Dazzle 594, its signal read; background 783, max binding 15000
[4] = target: T2, human CD4 on cells (SKW3 cells; human …); experiment: FACS primary screen, non-clonal hybridoma supernatant, SKW3 vs SKW3 CD4 knockout cells, anti-mouse Fc A647
[5] = target: T2, human CD4 on cells (SKW3 cells; human …); experiment: FACS confirmation, supernatant on human PBMCs, anti-mouse Fc 647, CD4+ percent of viable cells
[6] = target: T2, human CD4 on cells (SKW3 cells; human …); experiment: FACS confirmation, supernatant on human PBMCs, anti-mouse Fc 647, CD4+ gate
[7] = target: T2, human CD4 on cells (SKW3 cells; human …); experiment: FACS binning on SKW3 cells pre-incubated with supernatant; competitor OKT4-A488, its signal read; background 2163, max binding 8200
[8] = target: T2, human CD4 on cells (SKW3 cells; human …); experiment: FACS primary screen, non-clonal hybridoma supernatant, SKW3 vs SKW3 CD4 knockout cells, anti-human kappa FITC
[9] = target: T2, human CD4 on cells (SKW3 cells; human …); experiment: FACS binning on SKW3 cells pre-incubated with supernatant; competitor OKT4a read with anti-human A647 secondary; background 5000, max binding 35000

Binder	Ibalizumab ELISA binning signal (huCD4-HIS)	SKW3 WT anti-mFc 647, gMFI [1] [gMFI]	SKW3 WT anti-hu Kappa FITC, gMFI [2] [gMFI]	SKW3 FACS Binning RPA-T4-PE-Dazzle 594 [3]	SKW3 WT vs KO anti-mFc-647 [4] [fold]	PBMCs, anti-mFc 647 CD4+ Percent Bound of Viable [5] [%]	PBMCs, anti-mFc 647 CD4+ gate - RL1 Binding [6]	SKW3 FACS Binning OKT4 A488 [7]	SKW3 WT vs KO anti-hKappa-FITC [8] [fold]	SKW3 FACS Binning OKT4a anti-hu A647 Secondary [9]
B1	748000	26900	5580	2290	3.6	32	286000	9940	1.8	40200
B2	495000	19200	5000	2160	3.4	30	244000	10100	2	30100
B3	1.27e+06	41300	8670	21300	4	29	216000	9980	2.5	5800
B4	1.51e+06	29300	6850	11900	7.2	31	341000	9580	2.3	7140
B5	678000	30900	7580	11900	5.8	31	274000	9420	2.4	6870
B6	1.16e+06	18200	5910	19000	6.4	27	215000	9370	2.8	6220
B7	1.41e+06	25000	5620	10900	6.6	30	335000	10000	2.8	8240
B8	1.31e+06	30800	7220	20600	11.4	29	274000	9280	3	5320
B9	1.17e+06	23900	7240	20800	6.8	6	99600	9760	3.1	5500
